This passage reports binding results from publication PMC5498567.

The data set has as its system T1, BsmT (Stenotrophomonas maltophilia ATCC 13637 (CGMCC 1.1788 in supplement)), ORF:ed0b4815.
T1 sequence: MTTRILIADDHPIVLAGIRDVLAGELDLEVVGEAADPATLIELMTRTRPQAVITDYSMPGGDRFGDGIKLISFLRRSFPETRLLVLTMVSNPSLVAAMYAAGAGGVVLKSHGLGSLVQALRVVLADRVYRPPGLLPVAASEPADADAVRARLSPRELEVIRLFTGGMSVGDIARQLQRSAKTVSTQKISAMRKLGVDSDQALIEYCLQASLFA
Description: EMSA. The following applies: EMSA: 1 fmol 32P-labelled dsDNA with BsmT in reaction buffer at 28 °C; buffer composition, salt and pH not given (protein storage buffer 50 mM Tris-HCl, 0.5 mM …).

For the sequence “GTGCCCGGCCAATGTCGGTACAGGAAACCCCCGCTTCGGCGGGGGTTCCTTTTTTTGCCACCTGAACGGTGCCCGCGTGCAGGCTCCGGGCCGGTCGGCCAGCCGGGGATTTTAGGAAACAGCTGATTCCGCGCCGTCCGCGCCGCTTCCTAGCATCGTTGC (double strand)”, the binding entry was “binds”.
